Series [1] relates to scFv clone C1 (anti-dsDNA d(AT)4 recombinant antibody) (synthetic (Tomlinson I/J human scFv phage library)). Nature of the series: competition. The settings on record: competition ELISA against immobilized 35 bp dsDNA, 50% reduction, 1.25x10^7 M-1; discussion gives about 50-80 nM.
Series [2] shares this test system. Nature of the series: ELONA. The conditions noted are these: ELISA.

Regarding “ATATATATCCTAGAACGACAGACAAACAGTGAGTCCGCATTGTTACAT (double strand) [Icomp (Icomp:Icomp')]”, the Kd in series [1] worked out at 80 nM.

On to “AAAAGACTCACTGTTTGTCTGTCGTTCTAGGATATATAT / ATATATATCCTAGAACGACAGACAAACAGTGAGTC [35 bp dsDNA epitope (ssDNA:ssDNA')]”, for which the IC50 worked out at 31 nM in series [2] (varying immobilized dsDNA at fixed scFv (3 uM)) and 238 nM in series [2] (varying scFv with 25 pmol immobilized dsDNA, single site isotherm, 5xSSCT immobilization, RT).

Source of the values: US20140335568.
